Source: US20250115655A1, “PHARMACEUTICALS AND DEVICES FOR THE COVALENT IMMOBILIZATION TO THE EXTRACELLULAR MATRIX BY TRANSGLUTAMINASE” (JULIUS-MAXIMILIANS-UNIVERSITÄT WÜRZBURG, priority 2017, published 2025)
Blank lines part the entries; values can stand above or below the molecule they belong to. Primed or numbered codes have the meaning given here. Ends that are not written are not given here. DBCO′ = not defined here

Columns and labels:
Factor XIIIa [1] = target: T1, Factor XIIIa (Homo sapiens, UniProt P00488); test: Crosslinking of D domain peptides to a glutamine substrate derived from α-2 plasmin inhibitor, catalyzed by FXIIIa, RP-HPLC; format: biochemical
T1 construct: purchased Fibrogammin®
T1 sequence (P00488 39-732 limits assumed): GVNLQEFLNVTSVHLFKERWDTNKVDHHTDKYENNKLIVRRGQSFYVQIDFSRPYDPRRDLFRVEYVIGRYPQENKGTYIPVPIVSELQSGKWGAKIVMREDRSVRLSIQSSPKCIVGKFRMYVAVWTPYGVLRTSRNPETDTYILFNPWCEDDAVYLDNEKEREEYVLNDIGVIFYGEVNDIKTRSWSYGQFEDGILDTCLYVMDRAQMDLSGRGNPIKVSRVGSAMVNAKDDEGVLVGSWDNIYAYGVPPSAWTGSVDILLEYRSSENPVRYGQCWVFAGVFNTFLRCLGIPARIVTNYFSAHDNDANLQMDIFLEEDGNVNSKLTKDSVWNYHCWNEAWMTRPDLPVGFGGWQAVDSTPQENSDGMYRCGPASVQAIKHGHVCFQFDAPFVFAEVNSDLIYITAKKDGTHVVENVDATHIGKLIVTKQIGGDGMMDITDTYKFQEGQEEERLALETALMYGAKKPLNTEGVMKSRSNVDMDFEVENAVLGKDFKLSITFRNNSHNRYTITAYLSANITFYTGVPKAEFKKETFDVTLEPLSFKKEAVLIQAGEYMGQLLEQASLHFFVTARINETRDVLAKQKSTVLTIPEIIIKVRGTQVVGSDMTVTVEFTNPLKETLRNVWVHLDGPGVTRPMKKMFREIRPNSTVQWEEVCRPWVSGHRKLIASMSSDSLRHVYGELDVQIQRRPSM
From the text: Using solid phase peptide synthesis, the isolated peptide sequence of the D domain of human IGF-I (SEQ ID NO: 1) and mouse IGF-I (SEQ ID NO: 6) were synthesized and purified using preparative HPLC to achieve >95% purity. Additionally, a collection of N-terminally truncated versions of both sequences were created, in order to test if 7 or less amino acids are sufficient to be recognized by Factor XIIIa. According to a trypsin digest of coupled IGF-I, only K68 is modified and therefore, a reduction of the sequence to the last 3 amino acids could be possible. The truncated versions were manufactured and purified accordingly. Lyophilized peptides were dissolved in Tris buffer (20 mM Tris-HCl, 150 mM NaCl, pH 7.6) and reacted with a glutamine substrate (SEQ ID NO: 13, derived from α-2 plasmin inhibitor) in presence of 0.1 M calcium chloride and 10 U/ml Factor XIIIa (Fibrogammin®, activated with 0.02 U/ml thrombin). Following 30 minutes incubation at 37° C., the coupling reaction was stopped and the amount of crosslinked peptide analyzed using analytical RP-HPLC. The crosslinking ratios using equimolar amounts of both peptides (D domain and glutamine acceptor) are depicted in Table 1.

fibronectin [2] = test: Immobilization of dye-D domain conjugate on cell derived, isolated ECM / fibronectin using FXIIIa; format: biochemical; details: ECM from NIH3T3 fibroblasts (FIG. 2)
From the text: As proof of concept (for covalent attachment of a bioactive factor to extracellular matrix (ECM), we modified the D domain of IGF-I (SEQ ID NO: 1) with an dibenzocyclooctyne group (DBCO) at the N-terminus (SEQ: DBCO-PLKPAKSA), followed by coupling of a small molecule (fluorescent dye Azide Fluor 488) onto cell derived, isolated ECM. The ECM was produced by NIH3T3 fibroblasts and on day 6 decellularized and washed to remove cell debris and adsorbed proteins. Taking advantage of the intrinsic property of fibronectin, representing a glutamine donor for Factor XIII, we immobilized the fluorescent dye-D domain conjugate on the N-terminus of fibronectin without impairment of ECM structure and integrity.
FIG. 2: Immobilization of the covalent conjugate of the D domain (SEQ ID NO: 1) and the small molecule Azide Fluor 488 on fibronectin (isolated from human plasma) catalyzed by transglutaminase. The conjugates coupled to fibronectin in absence (lane #1) and presence (lane #2) of Factor XIIIa were transferred to a 5% SDS-PAGE gel and analyzed for fluorescence.
FIG. 3: Confocal laser scanning microscopy images of the Azide Fluor 488-D domain conjugate immobilized on isolated ECM in presence (panel 1) or absence (panel 2) of factor XIIIa. The green fluorescence of the immobilized dye-peptide conjugate co-localized with fibronectin (red fluorescence).

Factor XIIIa [3] = target: T1, Factor XIIIa; test: Crosslinking of D domain peptides to a glutamine substrate derived from α-2 plasmin inhibitor, catalyzed by FXIIIa, RP-HPLC; format: biochemical; remark: listed apart in the source
fibronectin [4] = test: Immobilization of eGFP modified with the D domain on plasma fibronectin and ECM using factor XIIIa; format: biochemical
Experimental: The same coupling reaction as described for IGF-I (Example 3) was also performed with enhanced green fluorescent protein (eGFP), previously modified with the D domain of human IGF-I (SEQ ID NO: 1), and immobilized using factor XIIIa (FIGS. 8A-8B). […] FIGS. 8A-8B: (8A) Western Blot of enhanced green fluorescent protein modified with the D domain (SEQ ID NO: 1) (eGFP-D domain, lane #1) after incubation with fibronectin in absence (lane #2) and presence (lane #3) of Factor XIIIa. (8B) Confocal laser scanning microscopy images of eGFP modified with the D domain (SEQ ID NO: 1) and immobilized on isolated ECM in presence (panel 1) or absence (panel 2) of factor XIIIa. The immobilized eGFP was visualized with a monoclonal eGFP antibody (green) und co-localized with fibronectin (red).

[5] = target: T2, D domain of human IGF-I (SEQ ID NO: 1)
T2 chain: PLKPAKSA

[6] = target: T3, D domain of mouse IGF-I (SEQ ID NO: 6)
T3 chain: PLKPTKAA

[7] = target: T4, N-terminally truncated D domain of human IGF-I, SEQ ID NO: 2
T4 chain: LKPAKSA

[8] = target: T5, N-terminally truncated D domain of human IGF-I, SEQ ID NO: 3
T5 chain: KPAKSA

[9] = target: T6, N-terminally truncated D domain of human IGF-I, SEQ ID NO: 4
T6 chain: PAKSA

[10] = target: T7, N-terminally truncated D domain of human IGF-I, SEQ ID NO: 5
T7 chain: AKSA

[11] = target: T8, N-terminally truncated D domain of mouse IGF-I, SEQ ID NO: 10
T8 chain: TKAA

[12] = target: T9, N-terminally truncated D domain of mouse IGF-I, SEQ ID NO: 7
T9 chain: LKPTKAA

[13] = target: T10, N-terminally truncated D domain of mouse IGF-I, SEQ ID NO: 8
T10 chain: KPTKAA

[14] = target: T11, N-terminally truncated D domain of mouse IGF-I, SEQ ID NO: 9
T11 chain: PTKAA

SEQ ID NO: 10 (-AS 67) = target: T12, SEQ ID NO: 10 (-AS 67)
T12 chain: KAA

SEQ ID NO: 5 (-AS 67) = target: T13, SEQ ID NO: 5 (-AS 67)
T13 chain: KSA

[15] = equimolar peptide and glutamine substrate, incubation for 30 minutes with 10 U/ml FXIIIa, 37° C.

Molecule: AKSA (listed as Homo sapiens) [SEQ ID NO: 5, N-terminally truncated human D domain]
Crosslinking Efficacy (1:1 molar ratio)* (Factor XIIIa [1]; [15]): 49.52 ± 1.29

Molecule: Alexa488-D domain: DBCO-PLKPAKSA coupled with fluorescent dye Azide Fluor 488 ({Azide Fluor 488-DBCO′}-PLKPAKSA)
immobilization on ECM (fibronectin [2]): high efficacy

Molecule: KPTKAA (listed as Mus musculus) [SEQ ID NO: 8, N-terminally truncated mouse D domain]
Crosslinking Efficacy (1:1 molar ratio)* (Factor XIIIa [1]; [15]): 55.68 ± 3.25

Molecule: LKPAKSA (listed as Homo sapiens) [SEQ ID NO: 2, N-terminally truncated human D domain]
Crosslinking Efficacy (1:1 molar ratio)* (Factor XIIIa [1]; [15]): 72.45 ± 1.57

Molecule: PAKSA (listed as Homo sapiens) [SEQ ID NO: 4, N-terminally truncated human D domain]
Crosslinking Efficacy (1:1 molar ratio)* (Factor XIIIa [1]; [15]): 44.18 ± 3.23

Molecule: PLKPAKSA (listed as Homo sapiens) [SEQ ID NO: 1, isolated D domain of human IGF-I]
Crosslinking Efficacy (1:1 molar ratio)* (Factor XIIIa [1]; [15]): 82.94 ± 0.79
Crosslinking Efficacy (1:1 molar ratio)* (Factor XIIIa [1]; molar excess of the glutamine sequence 1): 81.06 ± 5.13
Crosslinking Efficacy (1:1 molar ratio)* (Factor XIIIa [3]; molar excess of the glutamine sequence 0.5): 44.48 ± 2.45
Crosslinking Efficacy (1:1 molar ratio)* (Factor XIIIa [3]; molar excess of the glutamine sequence 2.5): 84.67 ± 2.02
Crosslinking Efficacy (1:1 molar ratio)* (Factor XIIIa [3]; molar excess of the glutamine sequence 3.75): 87.53 ± 5.33
Crosslinking Efficacy (1:1 molar ratio)* (Factor XIIIa [3]; molar excess of the glutamine sequence 5): 84.91 ± 6.23
Crosslinking Efficacy (1:1 molar ratio)* (Factor XIIIa [3]; molar excess of the glutamine sequence 10): 88.67 ± 6.52
conversion, time course of the coupling reaction with the Q peptide (Factor XIIIa [3]; within 10 minutes (FIG. 1)): about 80%

Molecule: PLKPTKAA (listed as Mus musculus) [SEQ ID NO: 6, isolated D domain of mouse IGF-I]
Crosslinking Efficacy (1:1 molar ratio)* (Factor XIIIa [1]; [15]): 84.16 ± 7.76

Molecule: eGFP-D domain conjugate: enhanced green fluorescent protein modified with the D domain of human IGF-I (SEQ ID NO: 1) (PLKPAKSA; also: conjugated to eGFP)
conjugation to plasma fibronectin (western blot) (fibronectin [4]; factor XIIIa (FIG. 8A)): effective conjugation
immobilization of the modified protein on ECM (fibronectin [4]; factor XIIIa (FIG. 8B)): confirmed

B1: human Factor XIIIa (Fibrogammin, activated with 0.02 U/ml thrombin) (protein)
chain: GVNLQEFLNVTSVHLFKERWDTNKVDHHTDKYENNKLIVRRGQSFYVQIDFSRPYDPRRDLFRVEYVIGRYPQENKGTYIPVPIVSELQSGKWGAKIVMREDRSVRLSIQSSPKCIVGKFRMYVAVWTPYGVLRTSRNPETDTYILFNPWCEDDAVYLDNEKEREEYVLNDIGVIFYGEVNDIKTRSWSYGQFEDGILDTCLYVMDRAQMDLSGRGNPIKVSRVGSAMVNAKDDEGVLVGSWDNIYAYGVPPSAWTGSVDILLEYRSSENPVRYGQCWVFAGVFNTFLRCLGIPARIVTNYFSAHDNDANLQMDIFLEEDGNVNSKLTKDSVWNYHCWNEAWMTRPDLPVGFGGWQAVDSTPQENSDGMYRCGPASVQAIKHGHVCFQFDAPFVFAEVNSDLIYITAKKDGTHVVENVDATHIGKLIVTKQIGGDGMMDITDTYKFQEGQEEERLALETALMYGAKKPLNTEGVMKSRSNVDMDFEVENAVLGKDFKLSITFRNNSHNRYTITAYLSANITFYTGVPKAEFKKETFDVTLEPLSFKKEAVLIQAGEYMGQLLEQASLHFFVTARINETRDVLAKQKSTVLTIPEIIIKVRGTQVVGSDMTVTVEFTNPLKETLRNVWVHLDGPGVTRPMKKMFREIRPNSTVQWEEVCRPWVSGHRKLIASMSSDSLRHVYGELDVQIQRRPSM
Crosslinking Efficacy (1:1 molar ratio) to the glutamine substrate derived from α2PI, 30 min, 10 U/ml FXIIIa, RP-HPLC [5]: 82.9%
conversion in the time course of the coupling reaction between the Q peptide and the D domain [5]: achieving about 80% conversion within 10 minutes
Crosslinking Efficacy (1:1 molar ratio) to the glutamine substrate derived from α2PI, 30 min, 10 U/ml FXIIIa, RP-HPLC [6]: 84.2%
Crosslinking Efficacy (1:1 molar ratio) to the glutamine substrate derived from α2PI, 30 min, 10 U/ml FXIIIa, RP-HPLC [7]: 72.5%
Crosslinking Efficacy (1:1 molar ratio) to the glutamine substrate derived from α2PI, 30 min, 10 U/ml FXIIIa, RP-HPLC [8]: 58.4%
Crosslinking Efficacy (1:1 molar ratio) to the glutamine substrate derived from α2PI, 30 min, 10 U/ml FXIIIa, RP-HPLC [9]: 44.2%
Crosslinking Efficacy (1:1 molar ratio) to the glutamine substrate derived from α2PI, 30 min, 10 U/ml FXIIIa, RP-HPLC [10]: 49.5%
Crosslinking Efficacy (1:1 molar ratio) to the glutamine substrate derived from α2PI, 30 min, 10 U/ml FXIIIa, RP-HPLC [11]: 39.3%
Crosslinking Efficacy (1:1 molar ratio) to the glutamine substrate derived from α2PI, 30 min, 10 U/ml FXIIIa, RP-HPLC [12]: 69.4%
Crosslinking Efficacy (1:1 molar ratio) to the glutamine substrate derived from α2PI, 30 min, 10 U/ml FXIIIa, RP-HPLC [13]: 55.7%
Crosslinking Efficacy (1:1 molar ratio) to the glutamine substrate derived from α2PI, 30 min, 10 U/ml FXIIIa, RP-HPLC [14]: 33.7%
Crosslinking Efficacy (1:1 molar ratio) to the glutamine substrate derived from α2PI, 30 min, 10 U/ml FXIIIa, RP-HPLC (SEQ ID NO: 10 (-AS 67)): 24.7%
Crosslinking Efficacy (1:1 molar ratio) to the glutamine substrate derived from α2PI, 30 min, 10 U/ml FXIIIa, RP-HPLC (SEQ ID NO: 5 (-AS 67)): 21.4%

The next lines start with the values.

Crosslinking Efficacy (1:1 molar ratio)* (Factor XIIIa [1]; [15]): 24.68 ± 3.42
Molecule: KAA (listed as Mus musculus) [SEQ ID NO: 10 (−AS 67)]

Crosslinking Efficacy (1:1 molar ratio)* (Factor XIIIa [1]; [15]): 58.37 ± 2.10
Molecule: KPAKSA (listed as Homo sapiens) [SEQ ID NO: 3, N-terminally truncated human D domain]

Crosslinking Efficacy (1:1 molar ratio)* (Factor XIIIa [1]; [15]): 21.40 ± 1.96
Molecule: KSA (listed as Homo sapiens) [SEQ ID NO: 5 (−AS 67)]

Crosslinking Efficacy (1:1 molar ratio)* (Factor XIIIa [1]; [15]): 69.42 ± 8.62
Molecule: LKPTKAA (listed as Mus musculus) [SEQ ID NO: 7, N-terminally truncated mouse D domain]

Crosslinking Efficacy (1:1 molar ratio)* (Factor XIIIa [1]; [15]): 33.69 ± 1.41
Molecule: PTKAA (listed as Mus musculus) [SEQ ID NO: 9, N-terminally truncated mouse D domain]

Crosslinking Efficacy (1:1 molar ratio)* (Factor XIIIa [1]; [15]): 39.26 ± 4.07
Molecule: TKAA (listed as Mus musculus) [SEQ ID NO: 10, N-terminally truncated mouse D domain]
